# B1: pRNA-HER2apt-siMED1: 3-WJ pRNA nanoparticle bearing a HER2-targeting RNA aptamer and two different MED1 siRNAs; strands p1 SEQ ID NO: 3, p2 SEQ ID NO: 4 (nucleic acid)
# chain 1: GGACAGUGAAAGUGAGUCAAAGGAUCAAUCAUGGCCAAAGAUGUUACUUUGAGAGCCUU
# chain 2: GGCUCUCAAAGUAACAUCUAAGGCCAUGUGUAUGUGGGGGGAGGACGAUGCGGUCUGCUGUGCUUGAUAUGCCCCAGACGACUCGCCCCCCACAUACUUUGUUGAUCCAAUGACUCACUUUCACUGUCCUU
# modifications: 2'-F modification; third strand may lack entry; pRNA-HER2apt-siMED1, p1; pRNA-HER2apt-siMED1, p2
# B2: pRNA-HER2apt^mut-siMED1: control pRNA nanoparticle with mutant HER2 aptamer; strands p1 SEQ ID NO: 5, p2 SEQ ID NO: 6 (nucleic acid)
# chain 1: B1 chain 1
# chain 2: GGCUCUCAAAGUAACAUCUAAGGCCAUGUGUAUGUGGGAUGAGGAGUAUGAAGAUACCUGUACUUGAUAUGCCCCAGACGACAUUCCCCCCACAUACUUUGUUGAUCCAAUGACUCACUUUCACUGUCCUU
# modifications: pRNA-HER2apt(mut)-siMED1, p1; pRNA-HER2apt(mut)-siMED1, p2
# System: MED1 mRNA
# Assay: MED1 mRNA level by real-time PCR in BT474 cells
# Type: cell-based, human
# Settings: BT474, 10 μg/mL, 48 h, direct incubation
# Method: FIG. 3A) BT474 cells were incubated with 10 μg/mL control and pRNA-HER2apt-siMED1 nanoparticles for 48 h, and MED1 mRNA level was determined by real-time PCR. FIG. 3B) BT474 cells were incubated directly with (as indicated by -) or transfected with indicated pRNAs using lipofectamine 2000. At 48 h post treatment, MED1 protein levels were determined by western blotting. FIG. 3C) BT474 cells were treated with 10 μg/mL pRNA nanoparticles for 48 h and assayed for cell viability by MTT assay. FIG. 3D) Cells were treated as above and seeded for migration, and FIG. 3E) invasion transwell assays. Scale bar: 50 μm. FIG. 3F) After pRNA treatment for 48 h, the mRNA levels of ERα target genes TFF-1, FIG. 3G) c-Myc, and FIG. 3H) cyclin D1 in BT474 cells were determined by real-time PCR.
# Cell culture. […] The hydrodynamic diameter and Tm value of pRNA nanoparticles were determined using dynamic light scattering and TGGE assay, respectively, as previously described.^54 The AFM imaging of the pRNA nanoparticles was performed at the University of Nebraska Medical Center imaging facility as previously reported.^55 Briefly, the pRNA nanoparticles (5 μL) were deposited on APS modified mica ^56 for a total of 2 min of incubation time. […] After washing three times with PBS, the cellular uptake of pRNAs was determined using a BD LSRFortessa™ flow cytometer. • Real-time PCR. […]
molecule,measurement,value
B1,depletion of MED1 mRNA,~70%
B2,depletion of MED1 mRNA,not

# Reference: US11110182B2, “Multifunctional RNA nanoparticles and methods for treating cancer and therapeutic resistant cancer” (University of Cincinnati, priority 2016, dated 2021)
